In publication PMC10687025, “Endosomal Arl4A attenuates EGFR degradation by binding to the ESCRT-II component VPS36” (Nature Communications, 2023):
Numbering of substitutions follows the chain as printed.

Columns and labels:
Assay in all cases: pull-down; 2 μg GST fusion protein on glutathione beads with 2 μg His-tagged Arl4A in 1 ml binding buffer (20 mM Tris-HCl pH 8.0, 150 mM NaCl, 5 mM MgCl2, 1 mM EDTA, 1 mM DTT, 10% glycerol, 1% Triton X-100), 1 h at 4 °C; anti-His blot
Conditions in all cases: both partners purified
His-tagged Arl4A WT = molecular target: T1, His-tagged Arl4A WT (UniProt P40617 1-200)
T1 construct: Arl4A, wild type; also called His-Arl4A; source: recombinant, purified (Ni-NTA resin)
T1 sequence (looked up): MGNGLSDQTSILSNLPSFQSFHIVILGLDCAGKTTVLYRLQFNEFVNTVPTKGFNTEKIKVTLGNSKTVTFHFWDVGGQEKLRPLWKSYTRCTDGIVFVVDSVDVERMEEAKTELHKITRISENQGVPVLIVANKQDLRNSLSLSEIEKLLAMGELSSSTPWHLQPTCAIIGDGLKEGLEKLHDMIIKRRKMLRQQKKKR

His-tagged Arl4A Q79L = molecular target: T2, His-tagged Arl4A Q79L (UniProt P40617 1-200, Q79L)
T2 construct: Arl4A, mutant Q79L; source: recombinant, purified (Ni-NTA resin)
T2 sequence (looked up): T1 sequence (looked up) with Q79L

His-tagged Arl4A T51N = molecular target: T3, His-tagged Arl4A T51N (UniProt P40617 1-200, T51N)
T3 construct: Arl4A, mutant T51N; also called His-Arl4A T51N; source: recombinant, purified (Ni-NTA resin)
T3 sequence (looked up): T1 sequence (looked up) with T51N

binding result (His-tagged Arl4A WT): binds | binding result (His-tagged Arl4A Q79L): binds | binding result (His-tagged Arl4A T51N): binds
B1: GST-VPS36 (201–386) (domain or fragment, UniProt Q86VN1 201-386, looked up)
chain: KIKDKQGDITEDETIRFKSYLLSMGIANPVTRETYGSGTQYHMQLAKQLAGILQVPLEERGGIMSLTEVYCLVNRARGMELLSPEDLVNACKMLEALKLPLRLRVFDSGVMVIELQSHKEEEMVASALETVSEKGSLTSEEFAKLVGMSVLLAKERLLLAEKMGHLCRDDSVEGLRFYPNLFMTQS
notes: source: E. coli BL21, purified on glutathione Sepharose 4B beads
